# Measurements: US8044021B2, “Sustained release of apo A-I mimetic peptides and methods of treatment” (Abbott Cardiovascular Systems Inc., priority 2007, dated 2011)
# Ends that are not written are not given here.
# Legend:
# [1] = turbidity change of DMPC multilamellar vesicles (MLV) after mixing with peptide; type: physicochemical
# Protocol: A mimetic peptide, SEQ ID NO: 4, was mixed with multilamellar vesicles comprised of DMPC. A DMPC chloroform solution was gently dried by nitrogen stream in the fume hood or by rotor evaporator. Resultant lipid film was further dried in vacuum desiccators and subjected to vacuum for at least 3 hours to remove residual chloroform. Phosphate buffered saline (PBS) was added to the lipid film and mixed using a vortex mixer to prepare an MLV suspension (2.5 mg/mL). The peptide was dissolved in PBS (1 mg/mL) then mixed with the same volume of MLV suspension at room temperature. […] At 0.5 mg/mL mimetic peptide in solution, the absorbance at 400 nm is zero. At 1.25 mg/mL DMPC in solution, the absorbance at 400 nm is 0.1. When the two solutions are combined and after approximately 5 minutes of mixing, the absorbance begins to approach zero. After approximately 15 minutes of mixing, the solution becomes completely clear, i.e., the absorbance is zero, thus evidencing mimetic peptide/phospholipid complexing.
# [2] = test system: reverse cholesterol transport; conditions: cited from earlier work
# [3] = circular dichroism (CD) spectra, calculated percent secondary structure; type: physicochemical
# [4] = CD spectra after heating then cooling; type: physicochemical; conditions: 25° C., heated to 70° C., cooled back to 25° C.; 0.0625-0.5 mg/mL
# Protocol: As shown in each chart (vii) through (x), a CD spectrum of the mimetic peptide was obtained at t1=25° C., then heated to t2=70° C., then cooled back to t3=25° C. for varying concentrations, e.g., 0.5 mg/mL mimetic peptide, 0.25 mg/mL mimetic peptide, 0.125 mg/mL mimetic peptide, and 0.0625 mg/mL mimetic peptide. The spectrums at t and t3 show a substantially identical spectrum for each of t1 and t3 at the various concentrations, thus indicating the mimetic peptide's secondary structure change is reversible when subjected to heat.
compound,measurement,setting,value
"CCCCCCCCCCCCCC(=O)OC[C@H](COP(=O)([O-])OCC[N+](C)(C)C)OC(=O)CCCCCCCCCCCCC [DMPC, dimyristoylphosphatidylcholine, reference compound]",absorbance at 400 nm,[1]; 1.25 mg/mL DMPC in solution (MLV in PBS),0.1
PALEDLRQGLLPVLESFKVFLSALEEYTKKLNTQ [33-mer peptide mimetic],need of phospholipid complex for effective reverse cholesterol transport,[2],requires phospholipid complex formation
"Ac-DWFKAFYDKVAEKFKEAF-NH2 [SEQ ID NO: 4, 18-mer peptide, 4F, N-acetyl, C-amide]",absorbance at 400 nm,[1]; 0.5 mg/mL mimetic peptide in solution (PBS),zero
same,alpha helicity,[3]; 0.125 mg/mL mimetic peptide,10.5%
same,alpha helicity,[3]; 0.25 mg/mL mimetic peptide,16%
same,alpha helicity,[3]; 0.5 mg/mL mimetic peptide,19.5%
same,secondary structure change when subjected to heat,[4],reversible
"DWFKAFYDKVAEKFKEAF (not fully specified) [D-4F, 18-mer apo A-I mimetic peptide 4F, D enantiomer]",reverse cholesterol transport in vitro,[2]; when a phospholipid complex is presented,function more effectively
same,reverse cholesterol transport,[2]; without a lipid complex,effective
